Source: patent US20140087995A1 (published 2014)
Numbered stars: 1 amine (or outer) side, 2 acyl side, 3 side chain; on linkers, the order of the positions; unused ones are H or OH. Bridge positions count the residues as written; N and C are the ends. * marks the point of attachment. C20 diacid = O=C(O)CCCCCCCCCCCCCCCCCCC(=O)*; γGlu = O=C(O)[C@H](CCC(=O)[*:2])N[*:1]

T1: human calcitonin receptor (human, UniProt P30988 25-474)
T1 sequence (looked up): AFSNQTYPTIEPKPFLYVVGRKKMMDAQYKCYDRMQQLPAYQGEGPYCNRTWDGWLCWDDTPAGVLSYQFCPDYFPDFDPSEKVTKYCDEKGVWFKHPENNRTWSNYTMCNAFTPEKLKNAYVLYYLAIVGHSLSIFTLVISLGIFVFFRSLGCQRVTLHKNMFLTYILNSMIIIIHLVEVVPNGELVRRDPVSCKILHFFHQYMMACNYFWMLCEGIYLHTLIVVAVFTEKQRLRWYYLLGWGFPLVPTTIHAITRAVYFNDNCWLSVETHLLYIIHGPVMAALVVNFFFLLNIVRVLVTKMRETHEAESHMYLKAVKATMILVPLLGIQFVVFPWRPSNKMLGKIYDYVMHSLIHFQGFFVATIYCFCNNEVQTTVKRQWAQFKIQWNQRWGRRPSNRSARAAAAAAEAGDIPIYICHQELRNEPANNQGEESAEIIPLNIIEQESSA

B1: N^α1-[(4S)-4-carboxy-4-(19-carboxynonadecanoylamino)butanoyl]-[Arg17,Pro21,Pro27,Pro31,Glu35]-h-amylin (peptide)
peptide: {C20 diacid-γGlu}-KCNTATCATQRLANFLRHSSPNFGAIPSSTPVGSETY-NH2
modifications: disulfide 2-7
SMILES: CC[C@H](C)[C@H](NC(=O)[C@H](C)NC(=O)CNC(=O)[C@H](Cc1ccccc1)NC(=O)[C@H](CC(N)=O)NC(=O)[C@@H]1CCCN1C(=O)[C@H](CO)NC(=O)[C@H](CO)NC(=O)[C@H](Cc1c[nH]cn1)NC(=O)[C@H](CCCNC(=N)N)NC(=O)[C@H](CC(C)C)NC(=O)[C@H](Cc1ccccc1)NC(=O)[C@H](CC(N)=O)NC(=O)[C@H](C)NC(=O)[C@H](CC(C)C)NC(=O)[C@H](CCCNC(=N)N)NC(=O)[C@H](CCC(N)=O)NC(=O)[C@@H](NC(=O)[C@H](C)NC(=O)[C@@H]1CSSC[C@H](NC(=O)[C@H](CCCCN)NC(=O)CC[C@H](NC(=O)CCCCCCCCCCCCCCCCCCC(=O)O)C(=O)O)C(=O)N[C@@H](CC(N)=O)C(=O)N[C@@H]([C@@H](C)O)C(=O)N[C@@H](C)C(=O)N[C@@H]([C@@H](C)O)C(=O)N1)[C@@H](C)O)C(=O)N1CCC[C@H]1C(=O)N[C@@H](CO)C(=O)N[C@@H](CO)C(=O)N[C@H](C(=O)N1CCC[C@H]1C(=O)N[C@H](C(=O)NCC(=O)N[C@@H](CO)C(=O)N[C@@H](CCC(=O)O)C(=O)N[C@H](C(=O)N[C@@H](Cc1ccc(O)cc1)C(N)=O)[C@@H](C)O)C(C)C)[C@@H](C)O
notes: h-amylin derivative; disulfide bridge and C-terminal amide as told for human amylin; also called compound 28
B2: N^α1-[(4S)-4-carboxy-4-(19-carboxynonadecanoylamino)butanoyl]-[Glu14,Arg17,Pro21,Pro27,His34]-h-amylin (peptide)
peptide: {C20 diacid-γGlu}-KCNTATCATQRLAEFLRHSSPNFGAIPSSTNVGHNTY-NH2
modifications: disulfide 2-7
SMILES: CC[C@H](C)[C@H](NC(=O)[C@H](C)NC(=O)CNC(=O)[C@H](Cc1ccccc1)NC(=O)[C@H](CC(N)=O)NC(=O)[C@@H]1CCCN1C(=O)[C@H](CO)NC(=O)[C@H](CO)NC(=O)[C@H](Cc1c[nH]cn1)NC(=O)[C@H](CCCNC(=N)N)NC(=O)[C@H](CC(C)C)NC(=O)[C@H](Cc1ccccc1)NC(=O)[C@H](CCC(=O)O)NC(=O)[C@H](C)NC(=O)[C@H](CC(C)C)NC(=O)[C@H](CCCNC(=N)N)NC(=O)[C@H](CCC(N)=O)NC(=O)[C@@H](NC(=O)[C@H](C)NC(=O)[C@@H]1CSSC[C@H](NC(=O)[C@H](CCCCN)NC(=O)CC[C@H](NC(=O)CCCCCCCCCCCCCCCCCCC(=O)O)C(=O)O)C(=O)N[C@@H](CC(N)=O)C(=O)N[C@@H]([C@@H](C)O)C(=O)N[C@@H](C)C(=O)N[C@@H]([C@@H](C)O)C(=O)N1)[C@@H](C)O)C(=O)N1CCC[C@H]1C(=O)N[C@@H](CO)C(=O)N[C@@H](CO)C(=O)N[C@H](C(=O)N[C@@H](CC(N)=O)C(=O)N[C@H](C(=O)NCC(=O)N[C@@H](Cc1c[nH]cn1)C(=O)N[C@@H](CC(N)=O)C(=O)N[C@H](C(=O)N[C@@H](Cc1ccc(O)cc1)C(N)=O)[C@@H](C)O)C(C)C)[C@@H](C)O
notes: h-amylin derivative; disulfide bridge and C-terminal amide as told for human amylin; also called compound 17
B3: N^α1-[(4S)-4-carboxy-4-(19-carboxynonadecanoylamino)butanoyl]-[His14,Arg17,Pro21,Pro27,Glu35]-h-amylin (peptide)
peptide: {C20 diacid-γGlu}-KCNTATCATQRLAHFLRHSSPNFGAIPSSTNVGSETY-NH2
modifications: disulfide 2-7
SMILES: CC[C@H](C)[C@H](NC(=O)[C@H](C)NC(=O)CNC(=O)[C@H](Cc1ccccc1)NC(=O)[C@H](CC(N)=O)NC(=O)[C@@H]1CCCN1C(=O)[C@H](CO)NC(=O)[C@H](CO)NC(=O)[C@H](Cc1c[nH]cn1)NC(=O)[C@H](CCCNC(=N)N)NC(=O)[C@H](CC(C)C)NC(=O)[C@H](Cc1ccccc1)NC(=O)[C@H](Cc1c[nH]cn1)NC(=O)[C@H](C)NC(=O)[C@H](CC(C)C)NC(=O)[C@H](CCCNC(=N)N)NC(=O)[C@H](CCC(N)=O)NC(=O)[C@@H](NC(=O)[C@H](C)NC(=O)[C@@H]1CSSC[C@H](NC(=O)[C@H](CCCCN)NC(=O)CC[C@H](NC(=O)CCCCCCCCCCCCCCCCCCC(=O)O)C(=O)O)C(=O)N[C@@H](CC(N)=O)C(=O)N[C@@H]([C@@H](C)O)C(=O)N[C@@H](C)C(=O)N[C@@H]([C@@H](C)O)C(=O)N1)[C@@H](C)O)C(=O)N1CCC[C@H]1C(=O)N[C@@H](CO)C(=O)N[C@@H](CO)C(=O)N[C@H](C(=O)N[C@@H](CC(N)=O)C(=O)N[C@H](C(=O)NCC(=O)N[C@@H](CO)C(=O)N[C@@H](CCC(=O)O)C(=O)N[C@H](C(=O)N[C@@H](Cc1ccc(O)cc1)C(N)=O)[C@@H](C)O)C(C)C)[C@@H](C)O
notes: h-amylin derivative; disulfide bridge and C-terminal amide as told for human amylin; also called compound 30
B4: N^α1-[(4S)-4-carboxy-4-(19-carboxynonadecanoylamino)butanoyl]-[Glu14,Arg17,Pro21,Pro27,Pro34]-h-amylin (peptide)
peptide: {C20 diacid-γGlu}-KCNTATCATQRLAEFLRHSSPNFGAIPSSTNVGPNTY-NH2
modifications: disulfide 2-7
SMILES: CC[C@H](C)[C@H](NC(=O)[C@H](C)NC(=O)CNC(=O)[C@H](Cc1ccccc1)NC(=O)[C@H](CC(N)=O)NC(=O)[C@@H]1CCCN1C(=O)[C@H](CO)NC(=O)[C@H](CO)NC(=O)[C@H](Cc1c[nH]cn1)NC(=O)[C@H](CCCNC(=N)N)NC(=O)[C@H](CC(C)C)NC(=O)[C@H](Cc1ccccc1)NC(=O)[C@H](CCC(=O)O)NC(=O)[C@H](C)NC(=O)[C@H](CC(C)C)NC(=O)[C@H](CCCNC(=N)N)NC(=O)[C@H](CCC(N)=O)NC(=O)[C@@H](NC(=O)[C@H](C)NC(=O)[C@@H]1CSSC[C@H](NC(=O)[C@H](CCCCN)NC(=O)CC[C@H](NC(=O)CCCCCCCCCCCCCCCCCCC(=O)O)C(=O)O)C(=O)N[C@@H](CC(N)=O)C(=O)N[C@@H]([C@@H](C)O)C(=O)N[C@@H](C)C(=O)N[C@@H]([C@@H](C)O)C(=O)N1)[C@@H](C)O)C(=O)N1CCC[C@H]1C(=O)N[C@@H](CO)C(=O)N[C@@H](CO)C(=O)N[C@H](C(=O)N[C@@H](CC(N)=O)C(=O)N[C@H](C(=O)NCC(=O)N1CCC[C@H]1C(=O)N[C@@H](CC(N)=O)C(=O)N[C@H](C(=O)N[C@@H](Cc1ccc(O)cc1)C(N)=O)[C@@H](C)O)C(C)C)[C@@H](C)O
notes: h-amylin derivative; disulfide bridge and C-terminal amide as told for human amylin; also called compound 32
B5: N^α1-[(4S)-4-carboxy-4-(19-carboxynonadecanoylamino)butanoyl]-[Glu14,Arg17,Pro21,Pro27,Pro31]-h-amylin (peptide)
peptide: {C20 diacid-γGlu}-KCNTATCATQRLAEFLRHSSPNFGAIPSSTPVGSNTY-NH2
modifications: disulfide 2-7
SMILES: CC[C@H](C)[C@H](NC(=O)[C@H](C)NC(=O)CNC(=O)[C@H](Cc1ccccc1)NC(=O)[C@H](CC(N)=O)NC(=O)[C@@H]1CCCN1C(=O)[C@H](CO)NC(=O)[C@H](CO)NC(=O)[C@H](Cc1c[nH]cn1)NC(=O)[C@H](CCCNC(=N)N)NC(=O)[C@H](CC(C)C)NC(=O)[C@H](Cc1ccccc1)NC(=O)[C@H](CCC(=O)O)NC(=O)[C@H](C)NC(=O)[C@H](CC(C)C)NC(=O)[C@H](CCCNC(=N)N)NC(=O)[C@H](CCC(N)=O)NC(=O)[C@@H](NC(=O)[C@H](C)NC(=O)[C@@H]1CSSC[C@H](NC(=O)[C@H](CCCCN)NC(=O)CC[C@H](NC(=O)CCCCCCCCCCCCCCCCCCC(=O)O)C(=O)O)C(=O)N[C@@H](CC(N)=O)C(=O)N[C@@H]([C@@H](C)O)C(=O)N[C@@H](C)C(=O)N[C@@H]([C@@H](C)O)C(=O)N1)[C@@H](C)O)C(=O)N1CCC[C@H]1C(=O)N[C@@H](CO)C(=O)N[C@@H](CO)C(=O)N[C@H](C(=O)N1CCC[C@H]1C(=O)N[C@H](C(=O)NCC(=O)N[C@@H](CO)C(=O)N[C@@H](CC(N)=O)C(=O)N[C@H](C(=O)N[C@@H](Cc1ccc(O)cc1)C(N)=O)[C@@H](C)O)C(C)C)[C@@H](C)O
notes: h-amylin derivative; disulfide bridge and C-terminal amide as told for human amylin; also called compound 31
B6: N^α1-[(4S)-4-carboxy-4-(19-carboxynonadecanoylamino)butanoyl]-[Glu14,Arg17,Pro21,Pro27,Arg35]-h-amylin (peptide)
peptide: {C20 diacid-γGlu}-KCNTATCATQRLAEFLRHSSPNFGAIPSSTNVGSRTY-NH2
modifications: disulfide 2-7
SMILES: CC[C@H](C)[C@H](NC(=O)[C@H](C)NC(=O)CNC(=O)[C@H](Cc1ccccc1)NC(=O)[C@H](CC(N)=O)NC(=O)[C@@H]1CCCN1C(=O)[C@H](CO)NC(=O)[C@H](CO)NC(=O)[C@H](Cc1c[nH]cn1)NC(=O)[C@H](CCCNC(=N)N)NC(=O)[C@H](CC(C)C)NC(=O)[C@H](Cc1ccccc1)NC(=O)[C@H](CCC(=O)O)NC(=O)[C@H](C)NC(=O)[C@H](CC(C)C)NC(=O)[C@H](CCCNC(=N)N)NC(=O)[C@H](CCC(N)=O)NC(=O)[C@@H](NC(=O)[C@H](C)NC(=O)[C@@H]1CSSC[C@H](NC(=O)[C@H](CCCCN)NC(=O)CC[C@H](NC(=O)CCCCCCCCCCCCCCCCCCC(=O)O)C(=O)O)C(=O)N[C@@H](CC(N)=O)C(=O)N[C@@H]([C@@H](C)O)C(=O)N[C@@H](C)C(=O)N[C@@H]([C@@H](C)O)C(=O)N1)[C@@H](C)O)C(=O)N1CCC[C@H]1C(=O)N[C@@H](CO)C(=O)N[C@@H](CO)C(=O)N[C@H](C(=O)N[C@@H](CC(N)=O)C(=O)N[C@H](C(=O)NCC(=O)N[C@@H](CO)C(=O)N[C@@H](CCCNC(=N)N)C(=O)N[C@H](C(=O)N[C@@H](Cc1ccc(O)cc1)C(N)=O)[C@@H](C)O)C(C)C)[C@@H](C)O
notes: h-amylin derivative; disulfide bridge and C-terminal amide as told for human amylin; also called compound 16
B7: N^α1-[(4S)-4-carboxy-4-(19-carboxynonadecanoylamino)butanoyl]-[Arg17,Pro21,Pro27,Pro34,Glu35]-h-amylin (peptide)
peptide: {C20 diacid-γGlu}-KCNTATCATQRLANFLRHSSPNFGAIPSSTNVGPETY-NH2
modifications: disulfide 2-7
SMILES: CC[C@H](C)[C@H](NC(=O)[C@H](C)NC(=O)CNC(=O)[C@H](Cc1ccccc1)NC(=O)[C@H](CC(N)=O)NC(=O)[C@@H]1CCCN1C(=O)[C@H](CO)NC(=O)[C@H](CO)NC(=O)[C@H](Cc1c[nH]cn1)NC(=O)[C@H](CCCNC(=N)N)NC(=O)[C@H](CC(C)C)NC(=O)[C@H](Cc1ccccc1)NC(=O)[C@H](CC(N)=O)NC(=O)[C@H](C)NC(=O)[C@H](CC(C)C)NC(=O)[C@H](CCCNC(=N)N)NC(=O)[C@H](CCC(N)=O)NC(=O)[C@@H](NC(=O)[C@H](C)NC(=O)[C@@H]1CSSC[C@H](NC(=O)[C@H](CCCCN)NC(=O)CC[C@H](NC(=O)CCCCCCCCCCCCCCCCCCC(=O)O)C(=O)O)C(=O)N[C@@H](CC(N)=O)C(=O)N[C@@H]([C@@H](C)O)C(=O)N[C@@H](C)C(=O)N[C@@H]([C@@H](C)O)C(=O)N1)[C@@H](C)O)C(=O)N1CCC[C@H]1C(=O)N[C@@H](CO)C(=O)N[C@@H](CO)C(=O)N[C@H](C(=O)N[C@@H](CC(N)=O)C(=O)N[C@H](C(=O)NCC(=O)N1CCC[C@H]1C(=O)N[C@@H](CCC(=O)O)C(=O)N[C@H](C(=O)N[C@@H](Cc1ccc(O)cc1)C(N)=O)[C@@H](C)O)C(C)C)[C@@H](C)O
notes: h-amylin derivative; disulfide bridge and C-terminal amide as told for human amylin; also called compound 29

target: T1, human calcitonin receptor; experiment: cell-based or functional assay

B1 and B2 are within 1.5-fold of each other in “hCTR funct. EC50” value: 2.03 nM for the first, 2.35 nM for the second.

First: B3
Second: B4
The “hCTR funct. EC50” value of the first is 5.1-fold higher: 1.68 nM for the first, 0.327 nM for the second.

First: B5
Second: B6
The “hCTR funct. EC50” value of the first is 3.1-fold lower: 0.717 nM for the first, 2.21 nM for the second.

For B7, the “hCTR funct. EC50” value was 0.857 nM.
